Assay results from publication PMC8967715 (2022).

Experiments:
Experiment in all cases: FACS
[1] = target: BtKY72 RBD, yeast-displayed (bat sarbecovirus BtKY72)
[2] = target: WIV1
[3] = target: SARS-CoV-2 RBD (Wuhan-Hu-1, Asn331–Thr531), yeast-displayed (SARS-CoV-2 (Wuhan-Hu-1), UniProt P0DTC2 331-531)

B1: R. affinis 787 ACE2 residues 19–615 with C-terminal human IgG1 Fc (Genscript) (Fc fusion)
chain: STTEDRAKIFLDNFNREAEELSYQSSLASWEYNTNISDENVQKMDEAGAKWSAFYEEQSKLAKNYPLEEIQTVPVKLQLQILQQSGSPVLSEDKSKRLNSILNAMSTIYSTGKVCKPNNPQECFLLEPGLDNIMGTSKDYNERLWAWEGWRAEVGKQLRPLYEEYVVLKNEMARGYHYEDYGDYWRRDYETEESSGSGYSRDQLMKDVDRIFTEIKPLYEHLHAYVRTKLMDTYPFHISPTGCLPAHLLGDMWGRFWTNLYPLTVPFGQKPNIDVTDAMVNQGWDANRIFKEAEKFFVSVGLPNMTEGFWNNSMLTEPGDGRKVVCHPTAWDLGKGDFRIKMCTKVTMEDFLTAHHEMGHIQYDMAYATQPYLLRNGANEGFHEAVGEVMSLSVATPKHLKTMGLLSPDFLEDNETEINFLLKQALNIVGTLPFTYMLEKWRWMVFRGEIPKEEWMKKWWEMKRDLVGVVEPVPHDETYCDPASLFHVANDYSFIRYYTRTIFEFQFHEALCRIAQHDGPLHKCDISNSTDAGKKLHQMLSVGKSQPWTVTLKDIVDSRNMDVGPLLRYFEPLYTWLQEQNRKSYVGWNTDWSPYSD
Kd [1]: 0.1 µM

B2: Mouse (Mus musculus) ACE2 (residues 18–740) with His tag and human IgG1 Fc (Fc fusion)
chain: QSLTEENAKTFLNNFNQEAEDLSYQSSLASWNYNTNITEENAQKMSEAAAKWSAFYEEQSKTAQSFSLQEIQTPIIKRQLQALQQSGSSALSADKNKQLNTILNTMSTIYSTGKVCNPKNPQECLLLEPGLDEIMATSTDYNSRLWAWEGWRAEVGKQLRPLYEEYVVLKNEMARANNYNDYGDYWRGDYEAEGADGYNYNRNQLIEDVERTFAEIKPLYEHLHAYVRRKLMDTYPSYISPTGCLPAHLLGDMWGRFWTNLYPLTVPFAQKPNIDVTDAMMNQGWDAERIFQEAEKFFVSVGLPHMTQGFWANSMLTEPADGRKVVCHPTAWDLGHGDFRIKMCTKVTMDNFLTAHHEMGHIQYDMAYARQPFLLRNGANEGFHEAVGEIMSLSAATPKHLKSIGLLPSDFQEDSETEINFLLKQALTIVGTLPFTYMLEKWRWMVFRGEIPKEQWMKKWWEMKREIVGVVEPLPHDETYCDPASLFHVSNDYSFIRYYTRTIYQFQFQEALCQAAKYNGSLHKCDISNSTEAGQKLLKMLSLGNSEPWTKALENVVGARNMDVKPLLNYFQPLFDWLKEQNRNSFVGWNTEWSPYADQSIKVRISLKSALGANAYEWTNNEMFLFRSSVAYAMRKYFSIIKNQTVPFLEEDVRVSDLKPRVSFYFFVTSPQNVSDVIPRSEVEDAIRMSRGRINDVFGLNDNSLEFLGIHPTLEPPYQPPVT
Kd [2]: ~3.98 µM | Kd [3]: > 10 µM
